From the nanobody polyreactivity screen of Harvey et al. (2022)

Experiment: yeast display, Sf9 membrane polyspecificity reagent, FACS + sequencing; frameworks hold sequencing errors
Outline: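 Sorting gates, low and high (top ~1%), were placed on anti-HA fluorescence to track expression and on streptavidin fluorescence to track reagent binding. A clone's polyreactivity label is taken from the gate it came out of. The reagent was 10% biotinylated, detergent-solubilized Sf9 membrane, applied for 1 hour at 4 °C to galactose-induced yeast display cells.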

Row | Sequence | polyreactivity (PSR sort gate)
1 | QVQLVESGGGLVQAGGSLRLSCAASGFTFNYYTMGWYRQAPGKERELVAAISGSGVSTYYADSVKGRFTISRDNAKNTVYLQMNSLKPEDTAVYYCNKLFGIYWGQGTQVTVSS | high polyreactivity
2 | QVQLVESCGGLVQAGGSLRLSCAASGRIFRWYAMGWYRQAPGKERELVARITSGGSTNYADSVKGRFTISRDNAKNTVYLQMNSLKPEDTAVYYCARDWGKSEYEYWGQGTQVTVSS | high polyreactivity
3 | QVKLQESGGGLVQAGGSLRLSCAASGNISVTGFMGWYRQAPGKERELVASIGIGGTTYYADSVKGRFSISRDNANNTLYLQMNSLKPEDTAVYYCAARYLYYAYSYWGQGTQVTVSS | low polyreactivity
4 | QVQLVESGGGLVQAGGSLRLSSAASGSIFGVNAMGVYRQAPGKERELVASITGGDSTNYADSVKGRFTISRDNAKNTVYFQMNSLKPEDTAVYYCAKDHYYRYCAAEFVTEYLYGFVYEYDSWGQGTQVTVSS | low polyreactivity
5 | QVQLVESGGGLVQAGGSLRLSCAASGITFRSYAMGWYRQAPGKERELVATISWSGGITYYADSVKGRFTISRDNAKNTVYLQMNSLKPEDTAVYYCAKASQSWGRDDYYYWGQGTQVTVSS | low polyreactivity
6 | QVQLVESGGGLVQAGGSLRLSCAASGIIIRKYAMGWYRQAPGKERELVAAITTRGSRTYYADSVKGRFTISRDNAKNTVYLQMNSLKPEDTAVYYCAADRYTVRMDYWGQGTQVTVSS | high polyreactivity
7 | QVQLVESGGGLVQAGGSLRLSCAASGGTFAFYAMGWYRQAPGKERELVAAITSGGRTYYADSVKGRFTISRDNAKNTVYLQMKRLKPEDTAVYYCNADWVDHYYVGYDYWGQGTQVTVSS | low polyreactivity
8 | QVQLVESGGGLVQAGGSLRLSCAASGRIIDTYAMGWYRQAPGKERELFASISRSDTSTSYADSVKGRFTISRDNAKNTVYLQMNCLKPEDTAVYYCNKDGVTVTNSKRYDYLGQGTQVTVSS | low polyreactivity
9 | QVQLVESGGGLVQAGGSLRLSCAASGSIFDIYAMGWYRQAPGKERELVAAISWIGDSTSYAESVKGRFTISRDNAKNTVYLQMNSLKPEDTAVYYCNAVVQGLADFQKYDYWGQGTQVTVSS | low polyreactivity
10 | QVQLVESGGGLVQAGGSLRLSCAASGFIFDDNAMGRYRQAPGKERELVAAITSGGGSTYYADSVKGRFTISRDNAKNTVYLQMNSLKPEDNAVYYCNAVPSQHVEFDYWGQGTQVTVSS | low polyreactivity
11 | QVQLVESGGGLVQAGGSLRLSCAASGLIFIAYAMGWYRQATGKERELVAAISSSGGSTYYADSVKGRFTISRDNAKNTVYLQMTSLKREDTAVYYCAADRYAWGTGRYGYWGQGTQVTVSS | low polyreactivity
12 | QVQLVESGGGLVQAGGSLRLSCAASGSTFTYYAMGWYRQPPGKERELVAAIDTSGTSTYYADSVKGRFTISRDNAKNTVYLQINSLKPEDTAVYYCNAYPTTYYQQYDYWGQGTQVTVSS | low polyreactivity
13 | QVQLVESGGGLVQAGGSLRLSCAASGRIFSYYAMGWYRQAPGKERELVAAISRTGGRTYYADSVKGRFTISRDNAKNTVYLQMNSLKPEDTAVYYCNVVGRRYWHWDQALDYWGQGTQVTVSS | high polyreactivity
14 | QVQLVESGGGLVQAGGSLRLSCAASGRIFNPNVMGWYRQAPGKERELVAAISWSGDTTYYADSVKWRFTISRDNAKNTVYLQMNSLKPEDTEVYYCATESDGYAYENYEYWGQGTQVTVSS | high polyreactivity
15 | QVQLVESGGGLVQAGGSLRLSCAASGRTFGGNAMGWYRQAPGKEREYVAAISRSGTSTYYADSVKGRFTISRDNAKNTVYLQMNSLKPEDTGVYYCAALNYHKFAHKSDYWGQGTQVTVSS | low polyreactivity
16 | QVQLVESGGGLVQAGGSLRLSCAASGRTFYYSMGWYRQAPGKERYADSVKGRFTISRDNAKNTVYLQMNSLKPEDTAVYYCSAKVPEPPSLDESDYWGQGTQVTVSS | low polyreactivity

Row | Sequence | polyreactivity (PSR sort gate)
17 | QVQLVESGGGLVQAGGSLRLSCAASGSISVNAMVWDRQAPGKERELVAVINRSGGNTYYADSVKGRFTISRDNAKNTVYLQMNSLKPEDTAVYYCAAKWTRSYSRYDYWGQVTQVTVSS | high polyreactivity
18 | QVQLVESGGGLVQAGGSLRLSCADSGSILIHYTMGWYRQEPGKERELVAAISSTGGSTYYADSVKGRFTISRDNAKNTVYLQMNSLKPEDTAVYYCATGPHQPPYSYLDYDYWGQGTQVTVSS | low polyreactivity
19 | QVQLVESGGGLVQAGGSLRLSCAASGGIFYGYALGWYRQAPGKERELVASITSDGSTYADSVKGRFTISRDNAKNTVYLQMNSLKPEDTAVYYCNKEILVIVTYDYWGQGTQVTVSS | low polyreactivity
20 | QVQLVESGGGLVQAGGSLRLSCAASGSIFGYNVMGGDRQAPGKEREFVARINYIGSSTYYADSVKGRFTISRDNAKNTVYLQMNSLKPEDTADYYCNADNARGRSGVRRYYWGQGTQVTVSS | high polyreactivity
21 | QVQLVESGGGLVQAGGSLRLSCAASGIFLGYALGWYRQAPGKERELVAAITSGDSTYYADSVKGRFTISRDNAKNTVYLQMNSLKPEDTAVYYCAKTRYSWPRVWYNYWGQGTQVTVSS | low polyreactivity
22 | QVQLVESGGGLVQAGGSLRLSCAASGRTSVLYAMGWSRQAPGKEREFVAAITWNSGSTYYADSVKGRFTISRDNAKNTVYLQMISLKPEDTAVYYCNADYYFTSYRSTYDYWGQGTHVTVSS | low polyreactivity
23 | QVQLGESGGGLVQAGGSLRLSCAASGSTFPVYAMGWSRQAPGKEWELVAAISSGGTTNYADSVKGRFTISRDNAKNTVYLQRNSLKPEDTAVYYCAADDWYYHFLVSSSAFDYWGQGTQVTVSS | high polyreactivity
24 | QVQLEESGGGLVQAGGSLRLSCAASGNIFYYYAMGWYRQAPGKEREVVATITSGGSTNYADSVKGRFTISRDNAKNTVYLQMNSLKPEDTAVYYCAADRRRTYYWLSSYFEGYYWGQGTQVTVSS | low polyreactivity
25 | QVQLVESGGGLVQAGGSLRLSCAASGRIFVGNALGWYRKAPGKERELVAAISGSGDSTYYADSVKGRFTISRDNAKNTVYLQMNSLKPEDTAVYYCNVDYDFVIYYYWYYPGYDYWGQGTQVTVSS | low polyreactivity
26 | QVQLVESGGGLVQAGGSLRLSCAASGSTFHVYAMGWYRQAPGKEREFVASITTRGGSTYYADSVKGRFTISRDNAKNTVYLQMNSLKPEDTAVYYCNATPYPGGNGRWRFWKSYGYWGQGTQVTVSS | high polyreactivity
27 | QVQLVESGGGLVQAGGSLRLRCAASGFTSYINAMGWYRQAPGKERELVAGITWSTGNTYYADSVKGRFTISRDNAKNTVYLQMNSLKPEDTAVYYCAADFYVAYVGVQPYWMDYWGQGTEVTVSS | low polyreactivity
28 | QVQLVESGGGLVQAGGSLRLSCAASGGTITSYAMGWYRQAPGKERELVAAITRSGGSTYYADSVKGRFTISRDNAKNTVYLQMNSLKPEDTAVYYCAARYSTYPWYNSWGQGTQVTVSS | high polyreactivity
29 | QVQLVESGGGLVQAGGSLRLSCAASGIIFRGYAMGWDRQAPGKERELVARISITGGRTYYADSVKGRFTLSRDNAKNTVYLQMNSLKPEDTAVYYCAAGKYVRTVRYDYWGQGPQVTVSS | high polyreactivity
30 | QVQLVESGGGLVQAGGSLRLSCAASGSIIQVYAMGWYRQAPGKERELVASITRTGGSTYYADSVKGSFTISRDNAKNTVYLQMNSLKPEDTAVYYCAARRVTSPFGSDSWGQGTQVTVSS | low polyreactivity
31 | QVQLVESGGGLVQAGGSLRLSCAASRFYTMGWYIPAPGKERELVAAISWSGGDTYYADSVKGRYTISRDNAKNTVYLQMNSLKQEDTAVYYCPKKTIGSYVHEPYYYWGQGNQVTVSS | low polyreactivity
32 | QVQLVESGGGLVQAGGSLRLSCAASGSIFGSYAMGWYRQAPGKERELVAGITRRSGSTYYADSVKGRFTISRDNAKNTVYLQMNSLKPEDTAVYYCNAQAYSRRWDARGDYWGQGTQVTVSS | high polyreactivity
